In the RNAGym collection of RNA variant scans (doi:10.1073/pnas.2313332121):
Fewer inactive variants are shown than the library holds.

B1: TPR 5TU (parent)
chain: GGAUCUUCUCGAUCUAACAAAAAAGACAAAUCUGCCACAAAGCUUGAGAGCAUCUUCGGAUGCAGAGGCGGCAGCCUUCGGUGGCGCGAUAGCGCCAACGUUCUCAACUAUGACACGCAAAACGCGUGCUCCGUUGAAUGGAGUUUAUCAUG

Variants of: B1
Assay: polymerase ribozyme fitness, log enrichment relative to wild type (log ratio); higher = more active; in vitro selection for triplet polymerase activity
In short: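 A heterodimeric triplet polymerase ribozyme had each of its subunits mutagenized by PCR into a library, which was transcribed. One round of in vitro selection, done in triplicate, annealed each library with a biotinylated primer, its partner subunit and triplets, then incubated it frozen at −7 °C before gel excision of extended constructs, streptavidin-bead capture and RT-PCR. Fitness is the logarithm of genotype enrichment relative to wild-type enrichment, based on Illumina sequencing of inputs and outputs and inverse-variance-weighted replicate averages. A base-2 logarithm is used, and genotypes were kept only with ≥10 input reads and ≥1 read per output.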

| Variant | polymerase ribozyme fitness (log ratio) |
| --- | --- |
| C27G C35G A49C G70C C79A C95G | ≤ -4.2 |
| C27A U44A G48A | ≤ -4.2 |
| C27G U44G U77G G83C A89U | ≤ -4.2 |
| C27A A106C A113U C125A | ≤ -4.2 |
| C27A A66C A73C G92U U148C | ≤ -4.2 |
| C27A C36U C87G G126C C149U | ≤ -4.2 |
| C27U C63G C95U C96U C99G | -3.33 |
| C27G C87G G133C | ≤ -4.2 |
| C27G G65A | ≤ -4.2 |
| C27A U55A G71A U77C C95U A113C C149G | ≤ -4.2 |
| C27A U82G C87G G94A U135A | ≤ -4.2 |
| C27G U45A G48U A91C | ≤ -4.2 |
| C27A A30U U44A C57A A97G A98U A119C A120G G128A | ≤ -4.2 |
| C27G C95A G141C | -3.77 |
| C27U C51G | -3.3 |
| C27G G50A | -3.72 |
| C27A C54G C105U | ≤ -4.2 |
| C27U C57A A66C G71A C96A U130A | ≤ -4.2 |
| C27U A97G C131A U151C | ≤ -4.2 |
| C27G C87A | ≤ -4.2 |
| C27G C87U | -3.97 |

| Variant | polymerase ribozyme fitness (log ratio) |
| --- | --- |
| C27G A147C | -4.05 |
| C27U A28C U44G A52C C93A | -4.1 |
| C27G C38A C54U G92U U134G | ≤ -4.2 |
| C27U C43U C95U A119U G143C U144C | -4.15 |
| C27A A28U C38U A39U A47U | ≤ -4.2 |
| C27G A37U A40C A64G G81A C95G A138C | -3.88 |
| C27U A39G A40C C69A U77C G94U C95A C116U G140U | ≤ -4.2 |
| C27U C43A C75U C96U C105A | ≤ -4.2 |
| C27G C32U C36U G88A C99U G141U G152C | -4.05 |
| C27G C76A C93G | ≤ -4.2 |
| C27U C43A A97U A150G | ≤ -4.2 |
| C27U A47C G128U | ≤ -4.2 |
| A26U U31A U44G C75G U102G A120C | ≤ -4.2 |
| C27G G94C G136U | ≤ -4.2 |
| C27U A29C G58C C85A U145A | ≤ -4.2 |
| C27G A29C C51A A73U G83A A97U U151A | ≤ -4.2 |
| C27A A28C C57G C76A A91C | ≤ -4.2 |
| A26U U55A G74A G92A A110U G136A | ≤ -4.2 |
| C27U A40C G59C G92C A98G C108U C132A U151G | ≤ -4.2 |
| C27G A28C A41U A91G C93U | ≤ -4.2 |
| C27G C51U G80C G86U | ≤ -4.2 |

| Variant | polymerase ribozyme fitness (log ratio) |
| --- | --- |
| C27G C54U C76G U144G | ≤ -4.2 |
| A26U G86A | -2.74 |
| C27U A28G A60G A98U G100A U135G | ≤ -4.2 |
| C27U A28G U53G A73G C85U G86C A120U C132U | ≤ -4.2 |
| C27A G46U G50U U56A G70C U101G | ≤ -4.2 |
| C27U A122G | -2.4 |
| C27U C38U A52U C85G G88U U102G | ≤ -4.2 |
| C27G U55A | -3.74 |
| C27A A28U A39C C54G C96A | ≤ -4.2 |
| C27U | -1.13 |
| C27A | -2.95 |
| C27G | -3.12 |
| C27G C93U G141C | -3.68 |
| C27G C36U G50U A73U U82A C95U | ≤ -4.2 |
| C27A U90G A107U | ≤ -4.2 |
| C27G U33C G68U | ≤ -4.2 |
| C27A U61A G86A | ≤ -4.2 |
| C27G A66G C87U U109A A113U | ≤ -4.2 |
| C27U C57A C87A A115U | ≤ -4.2 |
| C27G A29G C95U | ≤ -4.2 |
| C27G G67C G141A A147U G152A | ≤ -4.2 |

| Variant | polymerase ribozyme fitness (log ratio) |
| --- | --- |
| C27A U56A A60U A122C U144A | ≤ -4.2 |
| A26U G94C | -2.1 |
| C27G G83A A89C | -3.98 |
| C27A C63A G80C C85G A119C U144A | ≤ -4.2 |
| C27A G74A C76G G86C G128A C129U U144C | ≤ -4.2 |
| C27A G58U C95U C96A G124U | -4.08 |
| C27G U56A | -3.69 |
| C27A C85A G86U A91C U101A C118G | ≤ -4.2 |
| C27U A39C G83A | ≤ -4.2 |
| C27U A37C C51U C57U C95U C125A | -4.06 |
| C27G C51U | -3.97 |
| C27G C125A | -3.93 |
| C27U C36U | -2.88 |
| C27G A52G G92A | ≤ -4.2 |
| C27U C57A | -0.747 |
| C27A U45A C87U A138C | ≤ -4.2 |
| C27A G88A C96A A97G G128U U135G U145A | ≤ -4.2 |
| C27A G50C G80A C95U | ≤ -4.2 |
| C27A C54U A91C G94C | ≤ -4.2 |
| C27A A37U A91C | -4.17 |
